From US20170335314

Test system: biotinylated anti-BRD7 Fab fragment (murine IgG1 isotype; bFab) (Mus musculus)
Experiment: pulldown
Settings: streptavidin bead capture with QPCR readout; PBSM (PBS with 1 mM MgCl2), overnight

GCAAAGACATCTGGACACGCCACTAAGTGGAGGTGATCTGTACTTCATTTATGAGATCGCGGCGAGGAGAAGGAGACTTAGAGGC [aptamer 228 (10AptR1)]
Kd: 11 nM
